{
  "source": "patent US20240294594A1",
  "about": "(CYTUNE PHARMA, published 2024)",
  "binders": {"B1": {"name": "RLI2 mutein D30N/E64Q/N65D (NQD) of Table 13 (ligand)", "chain": "ITCPPPMSVEHADIWVKSYSLYSRERYICNSGFKRKAGTSSLTECVLNKATNVAHWTTPSLKCIRDPALVHQRPAPPSGGSGGGGSGGGSGGGGSGGNWVNVISDLKKIEDLIQSMHIDATLYTESNVHPSCKVTAMKCFLLELQVISLESGDASIHDTVQDLIILANNSLSSNGNVTESGCKECEELEEKNIKEFLQSFVHIVQMFINTS"}, "B2": {"name": "RLI DANAQD (ligand)", "chain": "B1 chain with N127D, D158A, Q161E, D162A, Q198D"}, "B3": {"name": "PEM LE/YTE-RLI NA x1 (other)", "heavy 1": "QVQLVQSGVEVKKPGASVKVSCKASGYTFTNYYMYWVRQAPGQGLEWMGGINPSNGGTNFNEKFKNRVTLTTDSSTTTAYMELKSLQFDDTAVYYCARRDYRFDMGFDYWGQGTTVTVSSASTKGPSVFPLAPCSRSTSESTAALGCLVKDYFPEPVTVSWNSGALTSGVHTFPAVLQSSGLYSLSSVVTVPSSSLGTKTYTCNVDHKPSNTKVDKRVESKYGPPCPPCPAPEFEGGPSVFLFPPKPKDTLYITREPEVTCVVVDVSQEDPEVQFNWYVDGVEVHNAKTKPREEQFNSTYRVVSVLTVLHQDWLNGKEYKCKVSNKGLPSSIEKTISKAKGQPREPQVYTLPPSQEEMTKNQVSLWCLVKGFYPSDIAVEWESNGQPENNYKTTPPVLDSDGSFFLYSRLTVDKSRWQEGNVFSCSVMHEALHNHYTQKSLSLSLGITCPPPMSVEHADIWVKSYSLYSRERYICNSGFKRKAGTSSLTECVLNKATNVAHWTTPSLKCIRDPALVHQRPAPPSGGSGGGGSGGGSGGGGSGGNWVNVISDLKKIEDLIQSMHIDATLYTESDVHPSCKVTAMKCFLLELQVISLESGDASIHDTVEALIILANNSLSSNAQVTESGCKECEELEEKNIKEFLQSFVHIVQMFINTS", "heavy 2": "QVQLVQSGVEVKKPGASVKVSCKASGYTFTNYYMYWVRQAPGQGLEWMGGINPSNGGTNFNEKFKNRVTLTTDSSTTTAYMELKSLQFDDTAVYYCARRDYRFDMGFDYWGQGTTVTVSSASTKGPSVFPLAPCSRSTSESTAALGCLVKDYFPEPVTVSWNSGALTSGVHTFPAVLQSSGLYSLSSVVTVPSSSLGTKTYTCNVDHKPSNTKVDKRVESKYGPPCPPCPAPEFEGGPSVFLFPPKPKDTLYITREPEVTCVVVDVSQEDPEVQFNWYVDGVEVHNAKTKPREEQFNSTYRVVSVLTVLHQDWLNGKEYKCKVSNKGLPSSIEKTISKAKGQPREPQVYTLPPSQEEMTKNQVSLSCAVKGFYPSDIAVEWESNGQPENNYKTTPPVLDSDGSFFLVSRLTVDKSRWQEGNVFSCSVMHEALHNHYTQKSLSLSLG", "light": "EIVLTQSPATLSLSPGERATLSCRASKGVSTSGYSYLHWYQQKPGQAPRLLIYLASYLESGVPARFSGSGSGTDFTLTISSLEPEDFAVYYCQHSRDLPLTFGGGTKVEIKRTVAAPSVFIFPPSDEQLKSGTASVVCLLNNFYPREAKVQWKVDNALQSGNSQESVTEQDSKDSTYSLSSTLTLSKADYEKHKVYACEVTHQGLSSPVTKSFNRGEC"}, "B4": {"name": "hCl1a DLE-RLI DANA afuc (other)", "heavy 1": "QVQLVQSGAEVKKPGASVKVSCKASGYTFTDYAMHWVRQAPGQRLEWMGWINTYTGKPTYAQKFQGRVTITRDTSASTAYMELSSLRSEDTAVYYCARAVFYGYTMDAWGQGTLVTVSSASTKGPSVFPLAPSSKSTSGGTAALGCLVKDYFPEPVTVSWNSGALTSGVHTFPAVLQSSGLYSLSSVVTVPSSSLGTQTYICNVNHKPSNTKVDKKVEPKSCDKTHTCPPCPAPELLGGPDVFLFPPKPKDTLMISRTPEVTCVVVDVSHEDPEVKFNWYVDGVEVHNAKTKPREEQYNSTYRVVSVLTVLHQDWLNGKEYKCKVSNKALPLPEEKTISKAKGQPREPQVYTLPPSRDELTKNQVSLWCLVKGFYPSDIAVEWESNGQPENNYKTTPPVLDSDGSFFLYSKLTVDKSRWQQGNVFSCSVMHEALHNHYTQKSLSLSPGITCPPPMSVEHADIWVKSYSLYSRERYICNSGFKRKAGTSSLTECVLNKATNVAHWTTPSLKCIRDPALVHQRPAPPSGGSGGGGSGGGSGGGGSGGNWVNVISDLKKIEDLIQSMHIDATLYTESDVHPSCKVTAMKCFLLELQVISLESGDASIHATVEALIILANNSLSSNAQVTESGCKECEELEEKNIKEFLQSFVHIVQMFINTS", "heavy 2": "QVQLVQSGAEVKKPGASVKVSCKASGYTFTDYAMHWVRQAPGQRLEWMGWINTYTGKPTYAQKFQGRVTITRDTSASTAYMELSSLRSEDTAVYYCARAVFYGYTMDAWGQGTLVTVSSASTKGPSVFPLAPSSKSTSGGTAALGCLVKDYFPEPVTVSWNSGALTSGVHTFPAVLQSSGLYSLSSVVTVPSSSLGTQTYICNVNHKPSNTKVDKKVEPKSCDKTHTCPPCPAPELLGGPDVFLFPPKPKDTLMISRTPEVTCVVVDVSHEDPEVKFNWYVDGVEVHNAKTKPREEQYNSTYRVVSVLTVLHQDWLNGKEYKCKVSNKALPLPEEKTISKAKGQPREPQVYTLPPSRDELTKNQVSLSCAVKGFYPSDIAVEWESNGQPENNYKTTPPVLDSDGSFFLVSKLTVDKSRWQQGNVFSCSVMHEALHNHYTQKSLSLSPG", "light": "DIQMTQSPSSLSASVGDRVTITCRASEDIYSNLAWYQQKPGKAPKLLIFSVKRLQDGVPSRFSGSGSGTDFTLTISSLQPEDFATYYCLQGSNFPLTFGQGTKVEIKRTVAAPSVFIFPPSDEQLKSGTASVVCLLNNFYPREAKVQWKVDNALQSGNSQESVTEQDSKDSTYSLSSTLTLSKADYEKHKVYACEVTHQGLSSPVTKSFNRGEC", "modifications": "afucosylated Fc N-glycan", "notes": "Afucosylated form of hCl1a DLE-RLI DANA"}},
  "key": {"IL-2/IL-15Rβγ (on cells) [1]": {"biological_target": "T1, IL-2/IL-15Rβγ (on cells) (UniProt P14784 27-551; P31785 23-369, limits assumed)", "T1 sequence (looked up) 1": "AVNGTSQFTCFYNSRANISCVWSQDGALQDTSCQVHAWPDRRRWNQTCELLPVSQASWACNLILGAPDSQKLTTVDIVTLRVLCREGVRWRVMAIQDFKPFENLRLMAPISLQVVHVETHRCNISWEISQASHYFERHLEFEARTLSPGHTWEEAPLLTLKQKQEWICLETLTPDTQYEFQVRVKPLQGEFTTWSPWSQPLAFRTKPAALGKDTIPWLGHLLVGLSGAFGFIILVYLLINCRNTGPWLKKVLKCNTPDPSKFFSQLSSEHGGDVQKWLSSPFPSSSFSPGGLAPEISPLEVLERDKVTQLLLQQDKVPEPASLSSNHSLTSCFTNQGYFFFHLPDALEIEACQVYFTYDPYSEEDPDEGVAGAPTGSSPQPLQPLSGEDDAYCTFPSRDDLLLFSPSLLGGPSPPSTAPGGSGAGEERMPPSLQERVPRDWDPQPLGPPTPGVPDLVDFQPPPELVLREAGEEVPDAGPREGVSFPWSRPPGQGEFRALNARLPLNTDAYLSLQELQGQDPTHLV", "T1 sequence (looked up) 2": "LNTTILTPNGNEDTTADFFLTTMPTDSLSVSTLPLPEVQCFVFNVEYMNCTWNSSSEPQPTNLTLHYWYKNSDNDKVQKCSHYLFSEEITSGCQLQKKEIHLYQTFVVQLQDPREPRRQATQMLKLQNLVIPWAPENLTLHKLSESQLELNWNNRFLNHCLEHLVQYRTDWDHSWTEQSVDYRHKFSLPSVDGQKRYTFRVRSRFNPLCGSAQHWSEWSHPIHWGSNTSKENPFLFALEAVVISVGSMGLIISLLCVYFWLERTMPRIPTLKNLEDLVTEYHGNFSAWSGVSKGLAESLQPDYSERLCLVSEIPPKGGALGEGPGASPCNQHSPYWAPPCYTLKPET", "test": "cell-based or functional assay"}, "IL-2/IL-15Rβγ (on cells) [2]": {"biological_target": "T1, IL-2/IL-15Rβγ (on cells)", "test": "cell-based or functional assay", "remark": "listed apart in the source"}, "[3]": {"biological_target": "PD-1 (on PD-1 Effector Cells of the Promega PD-1/PD-L1 Blockade Bioassay) (UniProt Q15116 25-288, limits assumed)", "sequence (Q15116 25-288 limits assumed)": "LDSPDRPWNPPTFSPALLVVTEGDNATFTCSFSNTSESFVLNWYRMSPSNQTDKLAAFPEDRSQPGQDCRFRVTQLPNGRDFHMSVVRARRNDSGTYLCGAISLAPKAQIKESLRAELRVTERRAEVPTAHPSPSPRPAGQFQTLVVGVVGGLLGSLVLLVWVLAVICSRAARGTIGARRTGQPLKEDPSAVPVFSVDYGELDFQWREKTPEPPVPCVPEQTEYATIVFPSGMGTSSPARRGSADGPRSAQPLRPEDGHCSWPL", "test": "cell-based or functional assay"}, "FcγRIIIa V158 [4]": {"biological_target": "T2, FcγRIIIa V158 (human, UniProt P08637 17-208, limits assumed)", "T2 construct": "also called hFcγRIIIaV158; CD16a V158", "T2 sequence (P08637 17-208 F176V limits assumed)": "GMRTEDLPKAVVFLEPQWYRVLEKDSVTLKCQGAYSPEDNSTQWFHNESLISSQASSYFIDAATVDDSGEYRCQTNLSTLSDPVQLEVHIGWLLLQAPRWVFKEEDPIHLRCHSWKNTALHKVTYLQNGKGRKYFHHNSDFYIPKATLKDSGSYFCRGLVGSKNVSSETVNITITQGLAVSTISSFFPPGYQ", "test": "SPR (Biacore 8K), ratio of 1/Kd values", "protocol": "(§1) SPR experiments were performed on a Biacore 8K (Cytiva, Chicago, IL, USA), using CM5 sensor chips (Cytiva) with an immobilization using THE His tag antibodies (Genscript). FcγRIIIa V158, FcγRIIIa F158 or FcγRIIb protein were used for capture with a contact time of 30 sec at a flow rate of […] in a 1×HBS-EP+ running buffer. Association/dissociation rates were measured for each tested immunocytokine at a flow rate of 30 μl/min with concentration serial dilution in a suitable range with an association time/dissociation time of 300 s/300 s except for constructs with DLE and DE with and without afucosylation, where association/dissociation time of 120 s/1200 s was applied."}, "FcγRIIIa F158 [5]": {"biological_target": "T3, FcγRIIIa F158 (human, UniProt P08637 17-208, limits assumed)", "T3 construct": "also called hFcγRIIIaF158; CD16a F158", "T3 sequence (P08637 17-208 limits assumed)": "as the sequence (P08637 17-208 F176V limits assumed) above, with V160F counted along it", "test": "SPR (Biacore 8K), ratio of 1/Kd values", "protocol": "as §1"}, "FcγRIIb": {"biological_target": "T4, FcγRIIb (UniProt P31994 46-217, limits assumed)", "T4 construct": "also called FcgRIIb", "T4 sequence (looked up)": "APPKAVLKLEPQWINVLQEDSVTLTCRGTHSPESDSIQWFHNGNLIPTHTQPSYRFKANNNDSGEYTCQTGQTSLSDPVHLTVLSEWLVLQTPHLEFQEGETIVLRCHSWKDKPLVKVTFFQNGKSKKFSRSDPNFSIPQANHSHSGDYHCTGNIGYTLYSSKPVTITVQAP", "test": "SPR (Biacore 8K), receptor captured via anti-His antibody", "protocol": "as §1"}, "FcγRIIIa V158 [6]": {"biological_target": "T2, FcγRIIIa V158", "test": "SPR (Biacore 8K), receptor captured via anti-His antibody", "protocol": "as §1"}, "FcγRIIIa F158 [7]": {"biological_target": "T3, FcγRIIIa F158", "test": "SPR (Biacore 8K), receptor captured via anti-His antibody", "protocol": "as §1"}},
  "note": "Positions count from the first letter of the chain named. Names may count otherwise.",
  "data": [
    {"binder": "B1", "values": [
      {"measurement": "Potency in vitro (kit225)", "setting": "IL-2/IL-15Rβγ (on cells) [1]", "value": "-15700 x (fold against RLI2 wt)"}
    ]},
    {"binder": "B2", "values": [
      {"measurement": "EC50 kit225 cells [pM]", "setting": "IL-2/IL-15Rβγ (on cells) [2]", "value": 106000, "unit": "pM"}
    ]},
    {"binder": "B3", "values": [
      {"measurement": "EC50 [pM], PD-1/PD-L1 Blockade Bioassay (Promega)", "setting": "[3]", "value": 1440, "unit": "pM"}
    ]},
    {"binder": "B4", "values": [
      {"measurement": "A/I (V158), affinity towards FcγRIIIa over affinity towards FcγRIIb", "setting": "FcγRIIIa V158 [4]", "value": 13700, "unit": "ratio"},
      {"measurement": "A/I (F158), affinity towards FcγRIIIa over affinity towards FcγRIIb", "setting": "FcγRIIIa F158 [5]", "value": 9370, "unit": "ratio"},
      {"measurement": "Kd", "setting": "FcγRIIb", "value": 2220, "unit": "nM"},
      {"measurement": "Kd", "setting": "FcγRIIIa V158 [6]", "value": 0.162, "unit": "nM"},
      {"measurement": "Kd", "setting": "FcγRIIIa F158 [7]", "value": 0.237, "unit": "nM"}
    ]}
  ]
}
